# Test results: the PETadex activity labels (doi:10.1002/anie.202203061)
# Columns and labels:
# PET [1] = assay: Proxy for plastic degradation [Released monomer concentration (HPLC/LC-MS) (TPA)]
# PET [2] = assay: Proxy for plastic degradation [Released monomer concentration (HPLC/LC-MS) (MHET)]
# [3] = Melting temperature [DSF / Thermofluor]; conditions: pH 7.5; part of the chain shown
protein,measurement,setting,value
unnamed (protein) MNKSILEKIAVGTSALLFSVSAFSFTPSPTPDPDPEPQPCQGECDFTRGPAPSSSYLEASSGPYSVNTVNVSRSVSGFGGGTIHYPTNTTGTMGAIAIVPGFLAGESSIAWWGPRLASHGFVVITIATNSTFDQPASRETQLGRALDYVISQSNSNSSDISGMVDSTRVGAMGWSMGGGGALRIASGSRLSAAIPLAPWHTGSNDFDEIDTPTMIIACENDSTAPVRSHASPFYNSIPSTTDKALLEINNGSHSCANGGGSNGGLLGKYGVSWMKRFIDEDTRYSQFLCGPNHASNSAISEYRETCDY,Proxy for plastic degradation,PET [1]; 30 °C,20 µM
same,Proxy for plastic degradation,PET [1]; 37 °C,20 µM
same,Proxy for plastic degradation,PET [1]; 45 °C,20 µM
same,Proxy for plastic degradation,PET [1]; 55 °C,20 µM
same,Proxy for plastic degradation,PET [1]; 65 °C,20 µM
same,Proxy for plastic degradation,PET [2]; 30 °C,3 µM
same,Proxy for plastic degradation,PET [2]; 37 °C,2 µM
same,Proxy for plastic degradation,PET [2]; 45 °C,2 µM
same,Proxy for plastic degradation,PET [2]; 55 °C,1 µM
same,Proxy for plastic degradation,PET [2]; 65 °C,1 µM
unnamed (protein) MNFPRASRLMQAAVLGGLMAVSAAATAQTNPYARGPNPTAASLEASAGPFTVRSFTVSRPSGYGAGTVYYPTNAGGTVGAIAIVPGYTARQSSIKWWGPRLASHGFVVITIDTNSTLDQPSSRSSQQMAALRQVASLNGTSSSPIYGKVDTARMGVMGWSMGGGGSLISAANNPSLKAAAPQAPWDSSTNFSSVTVPTLIFACENDSIAPVNSSALPIYDSMSRNAKQFLEINGGSHSCANSGNSNQALIGKKGVAWMKRFMDNDTRYSTFACENPNSTRVSDFRTANCS,Melting temperature,[3],42 °C
same,Proxy for plastic degradation,"PET [1]; 30 °C, part of the chain shown",30 µM
same,Proxy for plastic degradation,"PET [1]; 37 °C, part of the chain shown",25 µM
same,Proxy for plastic degradation,"PET [1]; 45 °C, part of the chain shown",20 µM
same,Proxy for plastic degradation,"PET [1]; 55 °C, part of the chain shown",20 µM
same,Proxy for plastic degradation,"PET [1]; 65 °C, part of the chain shown",10 µM
same,Proxy for plastic degradation,"PET [2]; 30 °C, part of the chain shown",3 µM
same,Proxy for plastic degradation,"PET [2]; 37 °C, part of the chain shown",2 µM
same,Proxy for plastic degradation,"PET [2]; 45 °C, part of the chain shown",2 µM
same,Proxy for plastic degradation,"PET [2]; 55 °C, part of the chain shown",1 µM
same,Proxy for plastic degradation,"PET [2]; 65 °C, part of the chain shown",1 µM
